Reference: patent US12104181B2, “Compositions and methods for treating viral infections targeting TRIM7” (THE BOARD OF REGENTS OF THE UNIVERSITY OF TEXAS SYSTEM, priority 2021, dated 2024)
Values joined by “and” are separate entries in the source; they are usually repeats but may differ in a detail not shown here. Equal entries are not always repeated.

Test system: coxsackievirus B3 (CVB3-GFP)
Assay type: cell-based
Settings: HeLa cells, replicate R1; for Percent Infected R1: GFP-positive cells within RFP-positive gate

B1: RNF144B: human RING type E3 ligase expressed from lentiviral vector (protein, UniProt Q7Z419 1-303, looked up)
E3 ubiquitin-protein ligase …: MGSAGRLHYLAMTAENPTPGDLAPAPLITCKLCLCEQSLDKMTTLQECQCIFCTACLKQYMQLAIREGCGSPITCPDMVCLNHGTLQEAEIACLVPVDQFQLYQRLKFEREVHLDPYRTWCPVADCQTVCPVASSDPGQPVLVECPSCHLKFCSCCKDAWHAEVSCRDSQPIVLPTEHRALFGTDAEAPIKQCPVCRVYIERNEGCAQMMCKNCKHTFCWYCLQNLDNDIFLRHYDKGPCRNKLGHSRASVMWNRTQVVGILVGLGIIALVTSPLLLLASPCIICCVCKSCRGKKKKHDPSTT
modifications: lentiviral expression
notes: human RING type E3 ligase expressed from lentiviral vector
Q: With B1 as the molecule, how does the “Percent Infected R1” value read?
A: 93.9%

Q: What about the “Z score R1” value of the same molecule?
A: 0.07

B2: TRIM72: human RING type E3 ligase expressed from lentiviral vector; listed twice (protein, UniProt Q6ZMU5 1-477, looked up)
Tripartite motif-containing …: MSAAPGLLHQELSCPLCLQLFDAPVTAECGHSFCRACLGRVAGEPAADGTVLCPCCQAPTRPQALSTNLQLARLVEGLAQVPQGHCEEHLDPLSIYCEQDRALVCGVCASLGSHRGHRLLPAAEAHARLKTQLPQQKLQLQEACMRKEKSVAVLEHQLVEVEETVRQFRGAVGEQLGKMRVFLAALEGSLDREAERVRGEAGVALRRELGSLNSYLEQLRQMEKVLEEVADKPQTEFLMKYCLVTSRLQKILAESPPPARLDIQLPIISDDFKFQVWRKMFRALMPALEELTFDPSSAHPSLVVSSSGRRVECSEQKAPPAGEDPRQFDKAVAVVAHQQLSEGEHYWEVDVGDKPRWALGVIAAEAPRRGRLHAVPSQGLWLLGLREGKILEAHVEAKEPRALRSPERRPTRIGLYLSFGDGVLSFYDASDADALVPLFAFHERLPRPVYPFFDVCWHDKGKNAQPLLLVGPEGAEA
Q: B2 was tested. Which “Percent Infected R1” value did it give?
A: 60.2% and 88.1%

Q: What about the “Z score R1” value of the same molecule?
A: −0.361 and −0.01

B3: TRIM59: human RING type E3 ligase expressed from lentiviral vector (protein, UniProt Q8IWR1 1-403, looked up)
Tripartite motif-containing …: MHNFEEELTCPICYSIFEDPRVLPCSHTFCRNCLENILQASGNFYIWRPLRIPLKCPNCRSITEIAPTGIESLPVNFALRAIIEKYQQEDHPDIVTCPEHYRQPLNVYCLLDKKLVCGHCLTIGQHHGHPIDDLQSAYLKEKDTPQKLLEQLTDTHWTDLTHLIEKLKEQKSHSEKMIQGDKEAVLQYFKELNDTLEQKKKSFLTALCDVGNLINQEYTPQIERMKEIREQQLELMALTISLQEESPLKFLEKVDDVRQHVQILKQRPLPEVQPVEIYPRVSKILKEEWSRTEIGQIKNVLIPKMKISPKRMSCSWPGKDEKEVEFLKILNIVVVTLISVILMSILFFNQHIITFLSEITLIWFSEASLSVYQSLSNSLHKVKNILCHIFYLLKEFVWKIVSH
Q: For B3, which “Percent Infected R1” value is on record?
A: 59.5%

Q: And the “Z score R1” value?
A: −0.37

B4: TRIM61: human RING type E3 ligase expressed from lentiviral vector (protein, UniProt Q5EBN2 1-209, looked up)
Putative tripartite …: MEFVTALADLRAEASCPICLDYLKDPVTISCGHNFCLSCIIMSWKDLHDSFPCPFCHFCCPERKFISNPQLGSLTEIAKQLQIRSKKRKRQEEKHVCKKHNQVLTFFCQKDLELLCPRCSLSTDHQHHCVWPIKKAASYHRKKLEEYNAPWKERVELIEKVITMQTRKSLELKKKMESPSVTRLECSCTISAHFNLRLPGSSDSSASGS
Q: With B4 as the molecule, how does the “Percent Infected R1” value read?
A: 65.8%

Q: And the “Z score R1” value?
A: −0.29

B5: TRIM67: human RING type E3 ligase expressed from lentiviral vector (protein, UniProt Q6ZTA4 1-783, looked up)
Tripartite motif-containing …: MEEELKCPVCGSLFREPIILPCSHNVCLPCARTIAVQTPDGEQHLPQPLLLSRGSGLQAGAAAAASLEHDAAAGPACGGAGGSAAGGLGGGAGGGGDHADKLSLYSETDSGYGSYTPSLKSPNGVRVLPMVPAPPGSSAAAARGAACSSLSSSSSSITCPQCHRSASLDHRGLRGFQRNRLLEAIVQRYQQGRGAVPGTSAAAAVAICQLCDRTPPEPAATLCEQCDVLYCSACQLKCHPSRGPFAKHRLVQPPPPPPPPAEAASGPTGTAQGAPSGGGGCKSPGGAGAGATGGSTARKFPTCPEHEMENYSMYCVSCRTPVCYLCLEEGRHAKHEVKPLGAMWKQHKAQLSQALNGVSDKAKEAKEFLVQLKNILQQIQENGLDYEACLVAQCDALVDALTRQKAKLLTKVTKEREHKLKMVWDQINHCTLKLRQSTGLMEYCLEVIKENDPSGFLQISDALIKRVQVSQEQWVKGALEPKVSAEFDLTLDSEPLLQAIHQLDFIQMKCRVPPVPLLQLEKCCTRNNSVTLAWRMPPFTHSPVDGYILELDDGAGGQFREVYVGKETLCTIDGLHFNSTYNARVKAFNSSGVGPYSKTVVLQTSDVAWFTFDPNSGHRDIILSNDNQTATCSSYDDRVVLGTAAFSKGVHYWELHVDRYDNHPDPAFGVARASVVKDMMLGKDDKAWAMYVDNNRSWFMHCNSHTNRTEGGVCKGATVGVLLDLNKHTLTFFINGQQQGPTAFSHVDGVFMPALSLNRNVQVTLHTGLEVPTNLGRPKLSGN
Q: Which “Percent Infected R1” value does the source give for B5 here?
A: 58.9%

Q: What about the “Z score R1” value of the same molecule?
A: −0.378

B6: TRIM74: human RING type E3 ligase expressed from lentiviral vector (protein, UniProt Q86UV6 1-250, looked up)
Tripartite motif-containing …: MAWQVSLLELEDWLQCPICLEVFKESLMLQCGHSYCKGCLVSLSYHLDTKVRCPMCWQVVDGSSSLPNVSLAWVIEALRLPGDPEPKVCVHHRNPLSLFCEKDQELICGLCGLLGSHQHHPVTPVSTVCSRMKEELAALFSELKQEQKKVDELIAKLVKNRTRIVNESDVFSWVIRREFQELRHPVDEEKARCLEGIGGHTRGLVASLDMQLEQAQGTRERLAQAECVLEQFGNEDHHEFIWKFHSMASR
modifications: lentiviral expression
notes: as for B1
Q: Which results are given for B6?
A: Percent Infected R1: 71.6%; Z score R1: −0.216

B7: TRIM68: human RING type E3 ligase expressed from lentiviral vector (protein, UniProt Q6AZZ1 1-485, looked up)
E3 ubiquitin-protein ligase …: MDPTALVEAIVEEVACPICMTFLREPMSIDCGHSFCHSCLSGLWEIPGESQNWGYTCPLCRAPVQPRNLRPNWQLANVVEKVRLLRLHPGMGLKGDLCERHGEKLKMFCKEDVLIMCEACSQSPEHEAHSVVPMEDVAWEYKWELHEALEHLKKEQEEAWKLEVGERKRTATWKIQVETRKQSIVWEFEKYQRLLEKKQPPHRQLGAEVAAALASLQREAAETMQKLELNHSELIQQSQVLWRMIAELKERSQRPVRWMLQDIQEVLNRSKSWSLQQPEPISLELKTDCRVLGLREILKTYAADVRLDPDTAYSRLIVSEDRKRVHYGDTNQKLPDNPERFYRYNIVLGSQCISSGRHYWEVEVGDRSEWGLGVCKQNVDRKEVVYLSPHYGFWVIRLRKGNEYRAGTDEYPILSLPVPPRRVGIFVDYEAHDISFYNVTDCGSHIFTFPRYPFPGRLLPYFSPCYSIGTNNTAPLAICSLDGED
Q: With B7 as the molecule, how does the “Percent Infected R1” value read?
A: 62%

Q: What about the “Z score R1” value of the same molecule?
A: −0.338

B8: TRIM60: human RING type E3 ligase expressed from lentiviral vector (protein, UniProt Q495X7 1-471, looked up)
Tripartite motif-containing …: MEFVTALVNLQEESSCPICLEYLKDPVTINCGHNFCRSCLSVSWKDLDDTFPCPVCRFCFPYKSFRRNPQLRNLTEIAKQLQIRRSKRKRQKENAMCEKHNQFLTLFCVKDLEILCTQCSFSTKHQKHYICPIKKAASYHREILEGSLEPLRNNIERVEKVIILQGSKSVELKKKVEYKREEINSEFEQIRLFLQNEQEMILRQIQDEEMNILAKLNENLVELSDYVSTLKHLLREVEGKSVQSNLELLTQAKSMHHKYQNLKCPELFSFRLTKYGFSLPPQYSGLDRIIKPFQVDVILDLNTAHPQLLVSEDRKAVRYERKKRNICYDPRRFYVCPAVLGSQRFSSGRHYWEVEVGNKPKWILGVCQDCLLRNWQDQPSVLGGFWAIGRYMKSGYVASGPKTTQLLPVVKPSKIGIFLDYELGDLSFYNMNDRSILYTFNDCFTEAVWPYFYTGTDSEPLKICSVSDSER
Q: For B8, which “Percent Infected R1” value is on record?
A: 54.3%

Q: And the “Z score R1” value?
A: −0.436

B9: TRIM62: human RING type E3 ligase expressed from lentiviral vector (protein)
chain: MACSLKDELLCSICLSIYQDPVSLGCEHYFCRRCITEHWVRQEAQGARDCPECRRTFAEPALAPSLKLANIVERYSSFPLDAILNARRAARPCQAHDKVKLFCLTDRALLCFFCDEPALHEQHQVTGIDDAFDELQRELKDQLQALQDSEREHTEALQLLKRQLAETKSSTKSLRTTIGEAFERLHRLLRERQKAMLEELEADTARTLTDIEQKVQRYSQQLRKVQEGAQILQERLAETDRHTFLAGVASLSERLKGKIHETNLTYEDFPTSKYTGPLQYTIWKSLFQDIHPVPAALTLDPGTAHQRLILSDDCTIVAYGNLHPQPLQDSPKRFDVEVSVLGSEAFSSGVHYWEVVVAEKTQWVIGLAHEAASRKGSIQIQPSRGFYCIVMHDGNQYSACTEPWTRLNVRDKLDKVGVFLDYDQGLLIFYNADDMSWLYTFREKFPGKLCSYFSPGQSHANGKNVQPLRINTVRI
Q: Which results are given for B9?
A: Percent Infected R1: 51.3%; Z score R1: −0.474

B10: TRIM65: human RING type E3 ligase expressed from lentiviral vector (protein, UniProt Q6PJ69 2-517, looked up)
E3 ubiquitin-protein ligase …: AAQLLEEKLTCAICLGLYQDPVTLPCGHNFCGACIRDWWDRCGKACPECREPFPDGAELRRNVALSGVLEVVRAGPARDPGPDPGPGPDPAARCPRHGRPLELFCRTEGRCVCSVCTVRECRLHERALLDAERLKREAQLRASLEVTQQQATQAEGQLLELRKQSSQIQNSACILASWVSGKFSSLLQALEIQHTTALRSIEVAKTQALAQARDEEQRLRVHLEAVARHGCRIRELLEQVDEQTFLQESQLLQPPGPLGPLTPLQWDEDQQLGDLKQLLSRLCGLLLEEGSHPGAPAKPVDLAPVEAPGPLAPVPSTVCPLRRKLWQNYRNLTFDPVSANRHFYLSRQDQQVKHCRQSRGPGGPGSFELWQVQCAQSFQAGHHYWEVRASDHSVTLGVSYPQLPRCRLGPHTDNIGRGPCSWGLCVQEDSLQAWHNGEAQRLPGVSGRLLGMDLDLASGCLTFYSLEPQTQPLYTFHALFNQPLTPVFWLLEGRTLTLCHQPGAVFPLGPQEEVLS
Q: Which “Percent Infected R1” value does the source give for B10 here?
A: 56.8%

Q: What about the “Z score R1” value of the same molecule?
A: −0.404
